The source of these data is PMC10248553 (The Journal of Biological Chemistry, 2023).

Where no end group is shown, it is not given here.

One experiment deals with RSK2 (44–367) (human, UniProt P51812 44-367). The experiment can be described thus: ITC. A general note: ITC needs no label: the signal is the heat of the interaction.
A further experiment concerns the target RSK2 (46–346) (human, UniProt P51812 46-346). Put plainly: crystal structure.

B1: SPRED2 (104–181) (domain or fragment)
chain: SPADARAFDRGVRKAIEDLIEGSTTSSSTIHNEAELGDDDVFTTATDSSSNSSQKREQPTRTISSPTSCEHRRIYTLG
As a reminder, the Kd is the equilibrium constant for the complex coming apart. High values mean lower affinity, low ones higher affinity. With B1, the Kd with RSK2 (44–367) was about 9 µM.

B2: SPRED2 (131–160) peptide (peptide)
peptide: Ac-STIHNEAELGDDDVFTTATDSSSNSSQKRE
Consider B2, for which the binding result with RSK2 (44–367) and with RSK2 (46–346) was “binds” throughout.

B3: SPRED2 (138–153) peptide (peptide)
peptide: Ac-ELGDDDVFTTATDSSS
Turning to B3, in the experiment with RSK2 (44–367), binding was characterised by a dissociation constant (Kd) of 20 µM.

B4: SPRED2 (140–151) peptide (peptide)
peptide: Ac-GDDDVFTTATDS
Turning to B4, the dissociation constant Kd with RSK2 (44–367) came out at 36 µM.

B5: SPRED2 (11–181) (domain or fragment)
chain: SYIVRVKAVVMTRDDSSGGWFPQEGGGISRVGVCKVMHPEGNGRSGFLIHGERQKDKLVVLECYVRKDLVYTKANPTFHHWKVDNRKFGLTFQSPADARAFDRGVRKAIEDLIEGSTTSSSTIHNEAELGDDDVFTTATDSSSNSSQKREQPTRTISSPTSCEHRRIYTLG
Turning to B5, in the experiment with RSK2 (44–367), the binding result is listed as “binds”.
